From the DeepSol protein solubility set

Assay: soluble on expression in E. coli; label from the status in PepcDB or PDB records

Soluble on expression in E. coli, not soluble:
MSLRVENLRSSTYRNGPTGLPNRARFSEDLDAVLLQRTADSAATAIAVDLCGSDYFRDMVKALGWDYADGYVALAYKRLISKLPAGTALYRLDTTTFAFMVTTADPLRLSALCSKISKGFVAPLEHQGIPHTAVASIGAVLLETSYGAADTLRSLTTSVDVAREHCLTWSLYEREGHHHHHH, MSLRVQLILHLEIPKEVCRSLEVDNYINNSIEINLKCEKKPTLYIKTHSIGSLKSILDDFFRCQNAAMEVYNLIKTYTIRNVTKDDLDDFLELYFKAYRGFDKYYYKKKKWARWYFKWLMKRDEDGFFVCEVNGKPVGFVACDCNWISNIEKREVAEIHEIFVDPDFRGRGIGTALINKAIEYAKKRGRRIVELWVGVENKGAIEFYKRLGFEEKEVVKGWLRMVKRIEGHHHHHH, MSLSAELLTSRDQQNFVVRATRADDVTIDVTSEAKWSVGDEKIVKLQGTTLLPAADGETKLTIEYSGFKSEVPVKVEQAGAERAVSFKQDVMPVFMRSGCNTGSCHGAARGKDGFRLSLFGFDPNGDYDRVTRELAARRINLAVPEASLLMEKAIGSVPHTGGKLFDQDSEYYSTLLRWLETGAQRDASEPPLCEKIEIYPPKAVLEGEGAKQQFIVKGFYADGTTRDITDLAVFLTSNDNSVPVGKDGMAVAANRGEAFVMARFDTHTVGSQVIVLPKDLNYEKPAIEGNYIDKLVGAKLHKLRITPSGLCTDEEYLRRVTIDITGQLPSEEEYAEFMADQSADKRVKLVDRLLERKEFAEIWAMKWAQLLMIKSENNRVSYKSAFLYNSWLQEKIANGVPLDEMVREMLGATGGTFSNPPTNFYEIERDTLKTAENVAQVFMGIRTQCAQCHNHPFDRWTMDDYYSFAAFFAQVGRKNAEDEREGHHHHHH, MSLSDNVDVDVLSLVQNDALEESVAINSMISKARANFSGSLLQFQTRVSSVYGETNEENAVNPLDPEHICKAFSDACIGLDIEIKEKLIVYKQFDRYVMGNLVECLEEANKIMIQAGVMPNLKYTAKKSRVTPRSTSDVSARPLEAQSDANGYDGAGDVFSQVQELLSALRNTASNPEQQQGDPNTGAGGRQAPPPGNVQFIADADLLSILSRLQHSVRTENLAEGPVVALDLRTAVQGLLSEESQKSGKATALDQIDEDLINLVSMLFEFILDDYNLSAPIQVLISRLQIPILKVAIRDKSFFSKPSHPARKLLNALAKAGIGWSDASEKKRDKLYEQIHRAVQRILEEFNGESELFEEIYQEFSQYLSREERKAKLVEQRTKEAEIGRVKSHKAHQVVEQILSEKIAAQPLPPVAVELLRGGWSRVMFLAYLKEDTEHRLNQCTKVVDELTWCLQPHAEVEARQRWVKVVPQLLKNLKAGLKEVSYNSAKLEHMLGELKKALTETFKQQSITSEGHHHHHH, MSLSFDVVFVGHRRGEVRSDNAMLGLLCDAAFDELTRPDVVIFPGGIGTRTLIHDQTVLDWVREAHRHTLLTTSVCTGGLVLAAAGLLNGLTATTHWRVQDLFNSLGARYVPQRVVEHLPERVITAAGVSSGIDMGLRLVELLVSREAAEASQLMIEYDPQPPVDAGSLAKASPATHRLALEFYQHREGHHHHHH

Soluble on expression in E. coli, soluble:
MSLRTIVFDVDDTLYDQQQPFRNAMTKIFPNVATEDMHELYLRFRHHSDETFPKVLANEWSLDFMRFFRMNETLKDLNYPGISQEEGKIFQQVYEEELDNITMHPEVTKLLDTLQEKEIPMGIITNGPTDHQFKKVKQLNIEKWVPSQNIIISQSTGFQKPEKEIFDLACNQFCMEPEHTLYVGDSYDNDIVGARNGGWHSLWFNHRSRELPSCQPASHLAEVTCFTELCPTVEKLFNLEGHHHHHH, MSLRTTHIPLVAIVLASVCSSLAAPKAGGLELIILHNNDMHARFEQTGAYSNDCQPSDVASNRCYGGFARVAHKVREYRATEASGGLPVLYLNAGDTYTGTPWFSVFKDNITAAFLNILKPDAISLGNHEFDLGVEGLVPFLNEVDFPVLVTNLDLSKTPEMQTSRSLQRSIIFTKAGVRIGVIGYLTPETKQLAPINTVEFLDEIEEINKEATSLKNQGVNILIALGHSGLERDKEIAAQCPDVDLVIGGHSHTFLYSGTAPDVEDPAGPYPVMVKNAAGKEVPVVQAYAYTKYLGYLHLQFDTEGNLIELDGTPLLLNGTVERDSDVLQLLELYRPGILALDAQIGHSNVFLDSSRCRFEECNIGNMIADSLVITYATTREQSNDGFWTDAAIGFIQGGGIRASVNAGPITMKDLKTVLPFGNAMVVTDITGAQLRQMLEQSVHRYDGVSGYGEFLQMAGVNVEYDLSRPPMQRVVHVKVRCARCQVPAYEELQDDGVYRVILSQFLYDGGDGYEMLPGSPRQLLTFGEYEITEEYLKRYSPIYPAIEWRIRMQGQPNVTEGHHHHHH, MSLRVAVGMSGGVDSSVTALLLKEQGHDVIRVTLRFHTVEACEVNETHNVCCSPKDVQDASRVAKRLGIPHLVFSWEEIFKSKVIDYFVEEYKRGRTPNPCALCNREVKTGFFARYLKQVADIDKLATGHYAKIEEDKKYGLVIKRPKDRKRDQTYFLSLVRREDLELLTFPLGAYTKEEVREIAKRYGLEVAQKRDSQEVCFLMGKSPGEYLEGILGKQRGLIKHVSGKVLGEHEGVYRYTIGQRRGLGISYGKPVYVIDIDAKTNTLIVGEEEYLYNDKLLVKEINFHVPLEKWENVSAQIRYRHKPVPVERIEKTEEGFLVKFKEDVRGITPGQVVAFYDGDVLLGGGIIEESVKEGHHHHHH, MSLRVEAQNISKTFGEVQALKDLSFVIEKGKALGLLGRNGAGKTTAIRILLGILPSDTGKVLVDNKKLSFDENAFGYLPEERGLYLKYTVKSQLMHFASLYGMKKKEALNSIEYWLEKFEISEYLNKKVETLSKGNKQKIQLIVAVMHDPEVIILDEPFSGLDPVNVELFKTVIRELLAKGKTLIFSSHRMADVEEFCDDIIMLKKGETMLQGNLDKIKEDYGIKGLVVEGEEKVQDFLKELGFEALEFKKGSYRVNLKDLEKGKELLRKITNTDLDIRGFYFERPSLNDIFIERLGEGHHHHHH, MSLRVTDFSFELPESLIAHYPMPERSSCRLLSLDGPTGALTHGTFTDLLDKLNPGDLLVFNNTRVIPARLFGRKASGGKIEVLVERMLDDKRILAHIRASKAPKPGAELLLGDDESINATMTARHGALFEVEFNDERSVLDILNSIGHMPLPPYIDRPDEDADRELYQTVYSEKPGAVAAPTAGLHFDEPLLEKLRAKGVEMAFVTLHVGAGTFQPVRVDTIEDHIMHSEYAEVPQDVVDAVLAAKARGNRVIAVGTTSVRSLESAAQAAKNDLIEPFFDDTQIFIYPGFQYKVVDALVTNFHLPESTLIMLVSAFAGYQHTMNAYKAAVEEKYRFFSYGDAMFITYNPQAINERVGEEGGSHHHHHH, MSLSAVKIAVILPMTGGISAFGRMVWEGIQIAHEEKPTVLGEEVELVLLDTRSEKTEAANAAARAIDKEKVLAIIGEVASAHSLAIAPIAEENKVPMVTPASTNPLVTQGRKFVSRVCFIDPFQGAAMAVFAYKNLGAKRVVVFTDVEQDYSVGLSNFFINKFTELGGQVKRVFFRSGDQDFSAQLSVAMSFNPDAIYITGYYPEIALISRQARQLGFTGYILAGDGADAPELIEIGGEAVEGLLFTTHYHPKAASNPVAKKFVEVYKEKYGKEPAALNALGYDAYMVLLDAIERAGSFDREKIAEEIRKTRNFNGASGIINIDENGDEGHHHHHH, MSLSDPHHPHIQTHNAWVEFPIFDAKSRSLKKAVLGKAGGTIGRNNSNVVVIEALRDITMELNLGDRVGLVGHNGAGKSTLLRLLSGIYEPTRGWAKVTGRVAPVFDLGIGMDPEISGYENIIIRGLFLGQTRKQMQAKVDEIAEFTELGEYLSMPLRTYSTGMRVRLAMGVVTSIDPEILLLDEGIGAVDADFLRKAQSRLQNLVERSGILVFASHSNEFLARLCKTAIWIDHGVIRLAGGIEEVVRAYEGEDAARHVREVLAETEGHHHHHH, MSLSDPVKVFLADNLRRYDAAVLVMSLPGFYRISADLMIEKNHDVPVVVVDDAGRFAVAASAGHAGGSDELAAYIAGIIDGQAVITDGIESGGRVSVEKIARSLLATIANPECIIPVNAAIANGEHVPVIFRSKKRSMLRRLFAESSDEKHGYAIVLADEPGEDANTCYLIPDDISIGIGFNSSADAELISACLERFLEEAGLAWEDIDYVSSIKDLPDVSIIRKGTRFVKFDPADIRDIDPEMLTHVSDKARDVFGVPGVAEPCAIRSLGPGSKIFLPFRSCGRSVTLAAARREGHHHHHH, MSLSEKPCERVVLDTSVFTNPSVAAVFGDNATSALAQFVILARQVSPRMEFYMPPSVLGELHHFTDAEHLPGDLELVIKLRAPRRHDISVPGMFLYELIEDIRQRIDRGLRVAEKAVREVQPTSVDRTIRWLRDRYRDALRTGLLDSSEDLDVILLAVELDGAVASADRGLLQWAEKGGLRLIPPQRLRSILEHLIENGTAGEEGHHHHHH, MSLSELIFYTNPMSRGRIARWMLEEVGIPYKTEILGFETSMKSPAYRLINPMAKVPAIKHGDTIVTEAAAICAYLADAFPGANLAPTPKARGLYYRWMFFAAGPLEMAASMKAMGFEVPKEKLRMAGCGSYADVMNTLERAVSENRFIAGDLFTAADVYVGAHVGWGLHFGTIEKRPAFTDYMAHLTDRPAFKRAAQLDEEAAKELQAAGEGHHHHHH, MSLSFTSTIKVVIADDHAILREGLKQILAETEDIEVVADAKNAAEAIKLAGTKGLDVVVLDISLPDRSGIEACNIIKKEHPGVAVLMLSMHREDAYAIRALRAGAVGYLSKQSASDQLVTAIRTVAKGKKYISAEVALALADQVSGGLEKPIHDTLSNREFQTLTMIASGLSVSEIAENLSLSVKTVSMYRARLLEKLNLRHNAELTHYAIKNNLIDEGHHHHHH, MSLSGCASPASASGASALSVWDLFQGGDGMLMDDMIEAVSKGAGGAEGFEIDRTILDWGPSYYTKLAMSAAGGRASDVAAMHLSRLAGYAPGGLVDAFDLDLLAEYGVTEKDFTPAVWARTRHEGTVYAIPLDVHPFIVFYDKKAAERAGLLDAAGELAPMGSPEALLEAGKALAEATGESGILFGHVTDTAQNWRLFAGLYAQTGAAFDLPDGGPPEIDVDAAVRVVTLMTRLFDGKTNPSNLDYNGALAAFSSGRGGMAMLGEWELPTLKKSGMELGAAPFPQVFEKPAVYTDSHSFVLPHQDSPDPARRREAHRYVAQILAQSLTWASAGHIPAYQPVLAEPEYAALDPQSSYADAAEVAVLDPPNWFAGAGSNFQNRMCQPLQSALLGDTTPEKAVRQMVREADTLLRQPNPVAEGHHHHHH, MSLSGMELSYRRSDLIFKRPAGTSRGVLTSKPTWFVRLDIDGHGGQGEVSLIPGLSLDPEEQIGRELDLLARRLRAEEPIRLRQFLAERGGADFSDYRSVLTDIAGILDSWQVSTDGRFPALRFALEMALLDLLSGGRQEWFASDFTRGEKRIPVNGLIWMGEAAFMQEQIEAKLAEGYGCLKLKIGAIDFDKECALLAGIRESFSPQQLEIRVDANGAFSPANAPQRLKRLSQFHLHSIEQPIRQHQWSEMAALCANSPLAIALDEELIGLGAEQRSAMLDAIRPQYIILKPSLLGGFHYAGQWIELARERGIGFWITSALESNLGLAAIAQWTALYQPTMPQGLGTGQLYTNNLPSNLAVDGGLLGVSEGHHHHHH, MSLSHLLELYINFKGEAKEAIAFYEDVFDTKCQNLMTFGEAPEDPEHPINDEIKDLVMNASIIIEGTYVMISDVPDMFGFEVTEGNNLSLVVSTDDDEKIDRLFKRLSEGGTVTMPFLKLFGPKSMVPEGGSHHHHHH
